Test results as given in US20180282690A1, “METHOD AND CULTURE MEDIUM FOR EX VIVO CULTURING OF EPIDERMIS-DERIVED STEM CELLS” (Max-Planck-Gesellschaft zur Förderung der Wissenchaften e.V., priority 2015, published 2018).

Test system: CD34^+α6^+ HFSCs
Assay: 3D-ECM culture of mouse keratinocytes, CD34+α6+ HFSCs quantified by flow cytometry
Format: cell-based
Conditions: for percentage of CD34+α6+ HFSCs: vs untreated 3C; for normalized CD34+α6+ content of cultures: day 14 Matrigel; for growth/expansion of CD34+α6+ HFSCs when FGF-2 or VEGF-164 is replaced: in the 3C, YF and/or YV media, compared with FGF-2 / VEGF-164
Protocol: Keratinocytes were isolated from back skin of mice by incubating skin pieces in 0.8% Trypsin (Gibco) for 50 min at 37° C. After separating the epidermis from the underlying dermis, cells were homogenized, filtered through 70 μm and 45 μm cell strainers (BD Biosciences) and pelleted at 900 rpm for 3 min. For 2D culture of epidermis-derived cells, tissue culture petri dished were coated with a mixture of collagen I (30 μg/ml)+fibronectin (10 μg/ml; both from Millipore) in MEM for 1 h at 37° C. prior to plating of cells. Epidermis-derived cells were suspended in KGM or in FAD medium, and seeded on the coated plastic dishes. Medium was exchanged the next day after initial seeding and thereafter every second day. […] For 3D culture of HFSCs, 8×10^4 cells were resuspended in 40 μl ice-cold 1:1 KGM:Matrigel mixture that was dispensed as a droplet in 24-well cell culture dishes. The suspension was allowed to solidify for 15 min after which it was overlaid with 500 μl of stem cell media. The following media compositions were used: KGM basal medium, medium Y (KGM, 5 μM Y27632, 10 ng/ml human recombinant EGF), medium Y-E (KGM, 5 μM Y27632), medium YV (KGM, 5 μM Y27632, 10 ng/ml human recombinant EGF, 20 ng/ml mouse recombinant VEGF), medium YF (KGM, 5 μM Y27632, 10 ng/ml human recombinant EGF, 20 ng/ml human recombinant FGF-2), 3C (KGM, 5 μM Y27632, 10 ng/ml human recombinant EGF, 20 ng/ml mouse recombinant VEGF, 20 ng/ml human recombinant FGF-2), and 3C-E (KGM, 5 μM Y27632, 20 ng/ml mouse recombinant VEGF, 20 ng/ml human recombinant FGF-2).
For cell passaging and flow cytometry cultured hair follicle stem cells were extracted from Matrigel by mechanical homogenization and incubation in 0.5% Trypsin (Gibco), 0.5 mM EDTA, PBS or Accutase (Gibco) for 10 min at 37° C.
Single cell suspensions prepared from murine back skin (described above) or from cultured cells were rinsed once with KGM and stained with fluorescently labeled antibodies for 30 min on ice. After two washes with FACS Buffer (2% FCS, 2 mM EDTA, PBS) cells were measured in a BD FACS Canto II and data was analyzed using FlowJo software version 10. For purification of cell populations (cell sorting) a BD FACS Aria II or a BD FACS Aria Fusion were used. Cells were sorted in KGM medium at 4′C. Expression of cell surface markers was analyzed on live cells after exclusion of cell doublets and dead cells, respectively.

[1] = cyclopamine 10 μM for 5 days added to 3C cultures
[2] = 3C conditions (Y27632+EGF+FGF+VEGF), vs VEGF-164 or FGF-2 set to 1
[3] = YF conditions (Y27632+EGF+FGF), vs FGF-2 set to 1

CC1=C2C[C@H]3[C@@H](CC=C4C[C@@H](O)CC[C@@]43C)[C@@H]2CC[C@]12O[C@@H]1C[C@H](C)CN[C@H]1[C@H]2C [cyclopamine, (2′R,3S,3′R,3′aS,6'S,6aS,6bS,7′aR,11aS,11bR)-1,2,3,3′a,4,4′,5′,6,6′,6a,6b,7,7′,7′a,8,11,11a,11b-Octadecahydro-3′,6′,10,11b-tetramethylspiro[9H-benzo[a]fluorene-9,2′(3′H)-furo[3,2-b]pyridin]-3-ol, reference compound]
proportion of HFSCs in the cultured cell mixture (3C conditions 9 days, then cyclopamine 10 μM for 5 days, flow cytometry day 14): up to 93.6%
total cell numbers [1]: decrease
percentage of CD34+α6+ HFSCs [1]: elevated

C[C@@H](N)[C@H]1CC[C@H](C(=O)Nc2ccncc2)CC1.Cl.Cl.O [Y27632, (R)-(+)-trans-4-(1-aminoethyl)-N-(4-Pyridyl)cyclohexanecarboxamide dihydrochloride monohydrate, reference compound]
requirement of ROCK inhibitor for HFSC growth and expansion (3C conditions, from the beginning of the culturing time): essential

COc1cc(-c2cc(-c3cccc(O)c3)cnc2N)cc(OC)c1OC [K02288, 3-[6-amino-5-(3,4,5-trimethoxyphenyl)pyridin-3-yl]phenol, reference compound]
percentage of CD34+α6+ HFSCs (3C conditions 14 days with K02288 10 nM): decrease

B1: FGF-7: human recombinant FGF-7 (protein, UniProt P21781 32-194, looked up)
Fibroblast growth factor 7: CNDMTPEQMATNVNCSSPERHTRSYDYMEGGDIRVRRLFCRTQWYLRIDKRGKVKGTQEMKNNYNIMEIRTVAVGIVAIKGVESEFYLAMNKEGKLYAKKECNEDCNFKELILENHYNTYASAKWTHNGGEMFVALNQKGIPVRGKKTKKEQKTAHFLPMAIT
normalized CD34+α6+ content of cultures [2]: perform equally well
normalized CD34+α6+ content of cultures [3]: perform equally well
growth/expansion of CD34+α6+ HFSCs when FGF-2 or VEGF-164 is replaced: Comparable

B2: FGF-18: human recombinant FGF-18 (protein, UniProt O76093 28-207, looked up)
Fibroblast growth factor 18: EENVDFRIHVENQTRARDDVSRKQLRLYQLYSRTSGKHIQVLGRRISARGEDGDKYAQLLVETDTFGSQVRIKGKETEFYLCMNRKGKLVGKPDGTSKECVFIEKVLENNYTALMSAKYSGWYVGFTKKGRPRKGPKTRENQQDVHFMKRYPKGQPELQKPFKYTTVTKRSRRIRPTHPA
growth/expansion of CD34+α6+ HFSCs when FGF-2 or VEGF-164 is replaced: Comparable

B3: FGF-10: human recombinant FGF-10 (protein, UniProt O15520 38-208, looked up)
Fibroblast growth factor 10: QALGQDMVSPEATNSSSSSFSSPSSAGRHVRSYNHLQGDVRWRKLFSFTKYFLKIEKNGKVSGTKKENCPYSILEITSVEIGVVAVKAINSNYYLAMNKKGKLYGSKEFNNDCKLKERIEENGYNTYASFNWQHNGRQMYVALNGKGAPRRGQKTRRKNTSAHFLPMVVHS
normalized CD34+α6+ content of cultures [2]: perform equally well
normalized CD34+α6+ content of cultures [3]: perform equally well
growth/expansion of CD34+α6+ HFSCs when FGF-2 or VEGF-164 is replaced: Comparable
